PMC4737579
Non-standard residues stand in square brackets, D forms with d. No end group written: not given here.

Target: soluble human furin (human) (UniProt P09958)
Assay: enzyme inhibition

Binder [dR][dR][dR][dR][dR][dR][dR][dR][dR] [nona-D-arginine] has a Ki of 140 nM.
